Measured values published in publication PMC7864068, “α2-Macroglobulin-like protein 1 can conjugate and inhibit proteases through their hydroxyl groups, because of an enhanced reactivity of its thiol ester” (The Journal of Biological Chemistry, 2021).
Where a chain is given by its changes, count along the chain named. In names and notes the source's numbering stands. Each block holds one molecule with its values, some of them ahead of it.

Assays:
[1] = target: T1, A2ML1 (α2-macroglobulin-like protein 1) (Homo sapiens, UniProt A8K2U0); assay: LC-MS/MS PRM of the pepsin-digested thiol ester peptide conjugate; assay type: biochemical; conditions: covalent amide at thiol ester Gln-973; A2ML1 activated by chymotrypsin; 200 mM glycine, HBS pH 7.4, 37 °C
T1 construct: full-length recombinant, secreted by HEK293 Freestyle cells, no tag mentioned, purified by Zn IMAC, anion exchange and size exclusion; monomer; bait region cleaved by chymotrypsin in the assay
T1 sequence (A8K2U0 18-1454): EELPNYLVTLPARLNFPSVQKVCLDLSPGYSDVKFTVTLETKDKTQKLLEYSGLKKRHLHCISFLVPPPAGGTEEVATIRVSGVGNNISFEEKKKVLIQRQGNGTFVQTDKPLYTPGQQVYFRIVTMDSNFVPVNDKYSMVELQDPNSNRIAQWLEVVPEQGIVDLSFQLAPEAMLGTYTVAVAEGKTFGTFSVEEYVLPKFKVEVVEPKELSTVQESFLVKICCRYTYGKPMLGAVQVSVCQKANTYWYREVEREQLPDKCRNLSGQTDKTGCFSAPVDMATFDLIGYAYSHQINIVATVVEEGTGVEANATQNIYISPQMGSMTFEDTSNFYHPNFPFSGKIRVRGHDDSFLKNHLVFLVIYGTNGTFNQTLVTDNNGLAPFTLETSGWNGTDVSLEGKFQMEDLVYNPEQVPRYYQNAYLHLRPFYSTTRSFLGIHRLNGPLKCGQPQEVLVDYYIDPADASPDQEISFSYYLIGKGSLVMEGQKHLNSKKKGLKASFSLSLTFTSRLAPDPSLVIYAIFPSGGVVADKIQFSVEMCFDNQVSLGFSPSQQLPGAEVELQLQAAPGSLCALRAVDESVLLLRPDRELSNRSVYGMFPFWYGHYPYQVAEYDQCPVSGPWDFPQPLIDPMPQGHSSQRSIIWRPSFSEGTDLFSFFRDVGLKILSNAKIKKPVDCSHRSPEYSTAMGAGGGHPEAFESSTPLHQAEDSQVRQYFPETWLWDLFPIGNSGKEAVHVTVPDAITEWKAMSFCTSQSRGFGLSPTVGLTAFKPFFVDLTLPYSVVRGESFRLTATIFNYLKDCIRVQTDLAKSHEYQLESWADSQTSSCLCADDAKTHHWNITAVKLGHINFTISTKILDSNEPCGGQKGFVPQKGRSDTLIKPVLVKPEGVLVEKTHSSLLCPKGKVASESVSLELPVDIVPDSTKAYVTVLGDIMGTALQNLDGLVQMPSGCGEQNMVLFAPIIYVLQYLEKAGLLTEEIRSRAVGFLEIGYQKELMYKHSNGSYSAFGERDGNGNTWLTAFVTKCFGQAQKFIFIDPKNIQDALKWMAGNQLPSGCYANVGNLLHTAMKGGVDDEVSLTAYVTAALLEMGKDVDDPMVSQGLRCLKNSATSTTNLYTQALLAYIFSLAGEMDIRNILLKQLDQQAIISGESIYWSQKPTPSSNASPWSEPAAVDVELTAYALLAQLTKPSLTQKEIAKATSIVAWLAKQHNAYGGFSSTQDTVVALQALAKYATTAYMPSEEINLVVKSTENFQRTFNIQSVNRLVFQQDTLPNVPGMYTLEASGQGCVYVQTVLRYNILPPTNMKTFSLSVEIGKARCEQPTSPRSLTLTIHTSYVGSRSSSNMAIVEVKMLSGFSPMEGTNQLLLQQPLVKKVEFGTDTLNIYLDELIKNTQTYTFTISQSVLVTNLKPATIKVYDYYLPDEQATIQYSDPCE

[2] = target: T2, A2M (α2-macroglobulin) (Homo sapiens, UniProt P01023); assay: as above; assay type: biochemical; conditions: covalent amide at thiol ester Gln-975; plasma-purified A2M activated by chymotrypsin; 200 mM glycine, HBS pH 7.4, 37 °C
T2 construct: WT purified from plasma; N1088H recombinant from HEK293 cells (gene based on mRNA M11311), native form enriched by LRP1 depletion; tetramer; cleaved by chymotrypsin in the assay
T2 sequence (P01023 24-1474): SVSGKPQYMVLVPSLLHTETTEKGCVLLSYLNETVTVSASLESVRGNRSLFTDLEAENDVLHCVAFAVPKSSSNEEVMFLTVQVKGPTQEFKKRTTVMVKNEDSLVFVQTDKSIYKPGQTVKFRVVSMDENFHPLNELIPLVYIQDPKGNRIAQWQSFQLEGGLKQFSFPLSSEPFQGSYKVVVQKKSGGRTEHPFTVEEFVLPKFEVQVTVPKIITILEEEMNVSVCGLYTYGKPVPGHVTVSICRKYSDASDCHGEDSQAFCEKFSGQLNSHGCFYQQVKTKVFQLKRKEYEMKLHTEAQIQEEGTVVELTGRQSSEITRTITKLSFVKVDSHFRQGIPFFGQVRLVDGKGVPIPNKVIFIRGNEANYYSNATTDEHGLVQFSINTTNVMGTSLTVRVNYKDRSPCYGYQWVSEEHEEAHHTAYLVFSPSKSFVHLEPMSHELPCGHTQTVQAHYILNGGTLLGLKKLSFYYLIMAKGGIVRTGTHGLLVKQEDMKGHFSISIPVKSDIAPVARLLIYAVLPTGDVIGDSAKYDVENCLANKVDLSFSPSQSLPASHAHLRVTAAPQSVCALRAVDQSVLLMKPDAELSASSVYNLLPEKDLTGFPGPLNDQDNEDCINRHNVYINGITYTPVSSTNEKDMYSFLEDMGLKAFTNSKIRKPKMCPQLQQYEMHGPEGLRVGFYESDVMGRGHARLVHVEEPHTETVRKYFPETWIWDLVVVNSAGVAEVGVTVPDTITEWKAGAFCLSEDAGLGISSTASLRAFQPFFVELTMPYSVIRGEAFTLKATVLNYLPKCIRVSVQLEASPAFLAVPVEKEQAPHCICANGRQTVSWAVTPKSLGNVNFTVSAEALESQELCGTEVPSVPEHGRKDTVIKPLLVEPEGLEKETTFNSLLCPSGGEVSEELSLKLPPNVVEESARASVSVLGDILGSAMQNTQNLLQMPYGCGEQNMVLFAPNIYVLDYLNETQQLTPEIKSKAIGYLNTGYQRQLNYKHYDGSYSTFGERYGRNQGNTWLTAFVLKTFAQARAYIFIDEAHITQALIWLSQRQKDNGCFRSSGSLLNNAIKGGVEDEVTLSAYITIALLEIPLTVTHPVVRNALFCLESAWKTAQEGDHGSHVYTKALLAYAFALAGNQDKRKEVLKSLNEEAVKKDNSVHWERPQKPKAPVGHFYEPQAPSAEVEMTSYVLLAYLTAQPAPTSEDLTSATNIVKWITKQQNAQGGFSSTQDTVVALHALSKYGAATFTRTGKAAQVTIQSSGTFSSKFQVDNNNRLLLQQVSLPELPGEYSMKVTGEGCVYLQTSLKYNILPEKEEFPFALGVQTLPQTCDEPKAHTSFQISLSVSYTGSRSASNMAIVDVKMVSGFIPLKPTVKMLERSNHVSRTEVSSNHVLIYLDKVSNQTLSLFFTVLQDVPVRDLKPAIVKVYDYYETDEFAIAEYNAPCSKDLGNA

[3] = target: Acetylated thermolysin (Geobacillus stearothermophilus) (UniProt P00800)
[4] = target: T3, Thermolysin from Geobacillus stearothermophilus, unmodified (Geobacillus stearothermophilus, UniProt P00800 233-548); assay: cell-based or functional assay
T3 sequence (looked up): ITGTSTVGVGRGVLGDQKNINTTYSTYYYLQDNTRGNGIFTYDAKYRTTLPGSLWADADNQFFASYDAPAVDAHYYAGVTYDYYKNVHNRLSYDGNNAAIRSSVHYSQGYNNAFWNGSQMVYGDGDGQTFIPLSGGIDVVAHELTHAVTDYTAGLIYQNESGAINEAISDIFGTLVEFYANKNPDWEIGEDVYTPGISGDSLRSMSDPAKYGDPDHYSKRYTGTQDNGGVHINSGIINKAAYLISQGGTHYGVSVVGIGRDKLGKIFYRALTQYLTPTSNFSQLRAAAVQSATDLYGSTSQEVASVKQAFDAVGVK

- LC-MS/MS PRM of the pepsin-digested thiol ester peptide conjugate [2]: both A2Ms were able to conjugate glycine
Molecule: NCC(=O)O [glycine]
- LC-MS/MS PRM of the pepsin-digested thiol ester peptide conjugate [1]: both WT and H1084N A2ML1s reacted with the amine substrate glycine

- inhibition of acetylated thermolysin's cleavage of resorufin-labeled casein, pH 7.8; molar surplus of A2ML1 needed for full inhibition (fold molar surplus of A2ML1) [3]: 6
- inhibition of thermolysin's cleavage of resorufin-labeled casein, pH 7.8; molar surplus of A2ML1 needed for full inhibition [4]: ~2 fold molar surplus of A2ML1
- inhibition of thermolysin's cleavage of resorufin-labeled casein, reaction at pH 5; surplus of A2ML1 needed for full inhibition [4]: ~4 fold surplus of A2ML1
B1: Human α2-macroglobulin-like protein 1 (A2ML1), recombinant wild type (natural protein, UniProt A8K2U0-1 18-1454, looked up)
chain: T1 sequence (A8K2U0 18-1454)
modifications: internal thiol ester in which Gln-973 participates

- inhibition of thermolysin's cleavage of resorufin-labeled casein, pH 7.8; molar surplus of A2ML1 needed for full inhibition [4]: ~2 fold molar surplus of A2ML1
- inhibition of thermolysin's cleavage of resorufin-labeled casein, reaction at pH 5; surplus of A2ML1 needed for full inhibition [4]: ~4 fold surplus of A2ML1
B2: A2ML1 H1084N mutant (natural protein, human, UniProt A8K2U0-1 18-1454, looked up)
chain: T1 sequence (A8K2U0 18-1454) with H1067N
modifications: internal thiol ester in which Gln-973 participates
